Laboratory results reported in patent US20150197796, “SSB METHOD” (OXFORD NANOPORE TECHNOLOGIES LIMITED, published 2015).

Target: EcoSSB-Q152del (C-terminal truncated SSB) (Escherichia coli, UniProt P0AGE0 SEQ:1-152)
Assay: EMSA; complex formation not impaired vs WT; 5% TBE gel
Conditions: tags: N-terminal His6-TEV site removed; chain copies: 4 inferred

B1: 70mer polyT (ssDNA)
DNA: TTTTTTTTTTTTTTTTTTTTTTTTTTTTTTTTTTTTTTTTTTTTTTTTTTTTTTTTTTTTTTTTTTTTTT
  binding result: binds
